Data: patent US12391751B2, “Antibody against advanced glycation end products and use thereof” (Bloom Technology Corporation, priority 2018, dated 2025)

Key:
Type in all cases: binding
A-peak-BSA = A-peak-BSA (Bos taurus, UniProt P02769); assay: Specificity of PB-1 by competitive ELISA (Example 30); conditions: A-peak-BSA or Glycer-AGEs-BSA immobilized, competitor 10 μg/mL, PB-1 0.05 μg/mL
Experimental: (§1) A-peak-BSA or Glycer-AGEs-BSA prepared into a concentration of 1 μg/mL with a coating solution (Example 13) was added at 100 μL/well to a 96-well microtiter plate (Costar) and immobilized overnight at 4° C.
(§2) The plate was washed three times with PBS containing 0.05% (v/v) Tween 20 (PBS-T) and then blocked with PBS-T containing 0.5% (w/v) gelatin for 1 hour.
(§3) Bovine serum albumin (BSA), BSA containing AGEs derived from glucose (Glu-AGEs-BSA), BSA containing AGEs derived from fructose (Fru-AGEs-BSA), BSA containing AGEs derived from glycolaldehyde (Glycol-AGEs-BSA), BSA containing AGEs derived from glyceraldehyde (Glycer-AGEs-BSA), BSA containing NE-carboxyethyllysine (CEL-AGEs-BSA), BSA containing NE-carboxymethyllysine (CML-AGEs-BSA), BSA containing AGEs derived from glyoxal (GO-AGEs-BSA), BSA containing AGEs derived from methylglyoxal (MGO-AGEs-BSA), and A-peak-BSA diluted into 10 μg/mL with PBS-T containing 0.1% (w/v) gelatin were each added at 50 μL/well to the antigen-immobilized plate, and the PB-1 antibody diluted into 0.05 μg/mL with PBS-T containing 0.1% (w/v) gelatin was further added at 50 μL/well, stirred with a plate mixer, and then left standing at room temperature for 1 hour.
(§4) After washing, peroxidase-labeled anti-mouse IgG (H+L) polyclonal antibody, F(ab′)2 fragment (Kirkegaard & Perry Laboratories, Inc.) diluted into 0.05 μg/mL with PBS-T containing 0.1% (w/v) gelatin was added at 100 μL/well and left standing at room temperature for 1 hour.
(§5) After washing, ELISA POD substrate TMB kit (Nacalai Tesque, Inc.) was added at 100 μL/well and left standing at room temperature in the dark. Ten minutes later, color development was terminated by the addition of 2 N sulfuric acid (50 μL/well). Absorbance was measured at a dominant wavelength of 450 nm and a sub-wavelength of 650 nm with a microplate reader (Cytation 5, BioTek Instrument Inc.), and the absorbance at the sub-wavelength was subtracted from the absorbance at the dominant wavelength.
(§6) The ordinate of the graph depicts change in absorbance relative to that of control BSA defined as 1. When A-peak-BSA and Glycer-AGEs-BSA were immobilized, the novel monoclonal antibody PB-1 was also positive to Glycol-AGEs-BSA, Glycer-AGEs-BSA, and A-peak-BSA and negative to Glu-AGEs-BSA, Fru-AGEs-BSA, CEL-AGEs-BSA, CML-AGEs-BSA, GO-AGEs-BSA, and MGO-AGEs-BSA in terms of specificity.

CML-AGEs-BSA = CML-AGEs-BSA (Bos taurus, UniProt P02769); assay: as above; conditions: A-peak-BSA or Glycer-AGEs-BSA immobilized, competitor 10 μg/mL, PB-1 0.05 μg/mL
CML-AGEs-BSA, sequence (P02769 25-607): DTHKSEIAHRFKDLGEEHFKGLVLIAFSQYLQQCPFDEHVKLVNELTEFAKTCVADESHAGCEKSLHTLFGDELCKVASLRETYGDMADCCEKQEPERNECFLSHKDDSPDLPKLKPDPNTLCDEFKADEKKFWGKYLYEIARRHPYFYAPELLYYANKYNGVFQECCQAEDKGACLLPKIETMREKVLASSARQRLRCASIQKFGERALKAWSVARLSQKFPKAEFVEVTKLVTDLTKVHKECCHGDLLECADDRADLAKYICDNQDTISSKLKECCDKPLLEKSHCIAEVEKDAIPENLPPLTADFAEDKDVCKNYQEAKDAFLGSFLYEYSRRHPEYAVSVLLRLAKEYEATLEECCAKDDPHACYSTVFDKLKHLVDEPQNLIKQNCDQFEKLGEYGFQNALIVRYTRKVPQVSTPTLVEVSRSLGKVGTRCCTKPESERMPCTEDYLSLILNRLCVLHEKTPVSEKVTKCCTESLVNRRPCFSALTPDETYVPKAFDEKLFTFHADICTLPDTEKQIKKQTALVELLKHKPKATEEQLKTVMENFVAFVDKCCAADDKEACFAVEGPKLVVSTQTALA
Experimental: as §1, §2, §3, §4, §5, §6

Fru-AGEs-BSA = Fru-AGEs-BSA (Bos taurus, UniProt P02769); assay: as above; conditions: A-peak-BSA or Glycer-AGEs-BSA immobilized, competitor 10 μg/mL, PB-1 0.05 μg/mL
Fru-AGEs-BSA, sequence (P02769 25-607): as above
Experimental: as §1, §2, §3, §4, §5, §6

GO-AGEs-BSA = GO-AGEs-BSA (Bos taurus, UniProt P02769); assay: as above; conditions: A-peak-BSA or Glycer-AGEs-BSA immobilized, competitor 10 μg/mL, PB-1 0.05 μg/mL
GO-AGEs-BSA, sequence (P02769 25-607): as above
Experimental: as §1, §2, §3, §4, §5, §6

Glu-AGEs-BSA = Glu-AGEs-BSA (Bos taurus, UniProt P02769); assay: as above; conditions: A-peak-BSA or Glycer-AGEs-BSA immobilized, competitor 10 μg/mL, PB-1 0.05 μg/mL
Glu-AGEs-BSA, sequence (P02769 25-607): as above
Experimental: as §1, §2, §3, §4, §5, §6

Glycer-AGEs-BSA = Glycer-AGEs-BSA (Bos taurus, UniProt P02769); assay: as above; conditions: A-peak-BSA or Glycer-AGEs-BSA immobilized, competitor 10 μg/mL, PB-1 0.05 μg/mL
Glycer-AGEs-BSA, sequence (P02769 25-607): as above
Experimental: as §1, §2, §3, §4, §5, §6

Glycol-AGEs-BSA = Glycol-AGEs-BSA (Bos taurus, UniProt P02769); assay: as above; conditions: A-peak-BSA or Glycer-AGEs-BSA immobilized, competitor 10 μg/mL, PB-1 0.05 μg/mL
Glycol-AGEs-BSA, sequence (P02769 25-607): as above
Experimental: as §1, §2, §3, §4, §5, §6

MGO-AGEs-BSA = MGO-AGEs-BSA (Bos taurus, UniProt P02769); assay: as above; conditions: A-peak-BSA or Glycer-AGEs-BSA immobilized, competitor 10 μg/mL, PB-1 0.05 μg/mL
MGO-AGEs-BSA, sequence (P02769 25-607): as above
Experimental: as §1, §2, §3, §4, §5, §6

[1] = test system: protein modified with the novel structure in human serum; assay: Western blotting of human serum protein purified with PB-1 antibody column (Example 37); conditions: PB-1 as primary antibody; versus secondary antibody only
Experimental: The solvent for the PB-1 antibody was replaced with a coupling buffer solution (0.2 M sodium carbonate, 0.5 M NaCl, pH 8.3) through a PD10 column (GE Healthcare Japan Corp.) to prepare 1 mL of a 10 mg/mL PB-1 antibody solution. The coupling support used was NHS-activated Sepharose 4 Fast Flow (GE Healthcare Japan Corp.). 10 mL of 1 mM HCl cooled in an ice bath was injected to 1 mL of NHS-activated Sepharose 4 Fast Flow, immediately thereafter mixed with the preliminarily prepared 10 mg/mL PB-1 antibody solution, and mixed by inversion (4° C., overnight) using a rotator (Taitec Corp.) so that the PB-1 antibody was immobilized to the coupling support. Then, 3 mL each of a buffer solution for blocking (0.1 M Tris-HCl, pH 8.0) and a buffer solution for washing (0.1 M sodium acetate, 0.5 M NaCl, pH 5.0) was injected thereto in order, and this operation was repeated three times. Finally, the solvent was replaced by the injection of 10 mL of PBS, followed by storage at 4° C.
The purification sample used was human serum (pool) (Cosmo Bio Co., Ltd.). […] Each fraction obtained by purification was analyzed by electrophoresis (SDS-PAGE) according to a routine method. […]

A-peak-BSA, sequence (P02769 25-607): as above

specificity: reactivity with A-peak-BSA (A-peak-BSA): positive | specificity: reactivity with CML-AGEs-BSA (CML-AGEs-BSA): negative | specificity: reactivity with Fru-AGEs-BSA (Fru-AGEs-BSA): negative | specificity: reactivity with GO-AGEs-BSA (GO-AGEs-BSA): negative | specificity: reactivity with Glu-AGEs-BSA (Glu-AGEs-BSA): negative | specificity: reactivity with Glycer-AGEs-BSA (Glycer-AGEs-BSA): positive | specificity: reactivity with Glycol-AGEs-BSA (Glycol-AGEs-BSA): positive | specificity: reactivity with MGO-AGEs-BSA (MGO-AGEs-BSA): negative
B1: PB-1: mouse monoclonal antibody raised against A-peak-BSA; heavy-chain variable region SEQ ID NO 18, light-chain variable region SEQ ID NO 22 (antibody, listed as Mus musculus, V domains shown)
VH: EVRLQQSGPELVKPGTSVKISCKASGYSFTGYYMHWVKQSPVKSLEWIGRIIPYNGATSYNQNFKDKASLTVDKSSRTAYMDLHSLTSEDSAVYYCARSRYYGRAPYYFDYWGQGTTLTVSS
VL: DVVVTQTPLSLPVSLGDQASISCRSSQSIVHSNGNTYLEWYLQKPGQSPKLLIYKVSNRFSGVPDRISGSGSGTDFTLKISRVEAGDLGVYSCFQGSHVPFTFGSGTKLEIK
protein band detection in Western blotting [1]: a band was detected
